From patent US20200024639A1

Target: HA-NanoLuc-VAMP2 (UniProt P63027)
Test: cell-based or functional assay

UniProt P63027, sequence (P63027 1-116, tags or fused parts left off): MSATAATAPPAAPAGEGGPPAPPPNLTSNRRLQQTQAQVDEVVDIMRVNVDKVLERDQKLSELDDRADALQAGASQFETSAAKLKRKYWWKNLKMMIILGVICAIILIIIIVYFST

Substance: botulinum neurotoxin type B (from UniProt P10844 2-1291) (enzyme)
- cleavage of the reporter in SiMa cells, immunoblot with total VAMP2 antibody: 10 nM
